From paper PMC7353053, “Characterisation of the Effect of the Spatial Organisation of Hemicellulases on the Hydrolysis of Plant Biomass Polymer” (International Journal of Molecular Sciences, 2020)
Each block holds one molecule with its values, some of them ahead of it.

How the values were obtained:
[1] = target: His-BhXyl43 (Bacillus halodurans C-125); experiment: SAXS; proteins in 50 mM phosphate pH 7, around 10 mg/mL; direct injection and online SEC-HPLC curves merged; fit to the dimer of PDB 1YRZ or rigid body modelling; dimer to monomers
[2] = target: His-In-NpXyn11A-BhXyl43-Jo (not stated | Neocallimastix patriciarum | Bacillus halodurans C-125); experiment: as above
[3] = target: His-In-NpXyn11A-Jo-BhXyl43 (not stated | Neocallimastix patriciarum | Bacillus halodurans C-125); experiment: as above
[4] = substrate: O=[N+]([O-])c1ccc(O[C@@H]2OC[C@@H](O)[C@H](O)[C@H]2O)cc1; experiment: purified protein; format: biochemical, Halalkalibacterium halodurans; settings: 50 mM Tris-HCl pH 8, 1 mg/mL BSA, 45 °C, 10 min, 0.1 to 18 mM substrate

stoichiometry N [1]: 2
Molecule: His-BhXyl43 (enzyme)

stoichiometry N [2]: 2
Molecule: His-In-NpXyn11A-BhXyl43-Jo (complex)

stoichiometry N [3]: 2
Molecule: His-In-NpXyn11A-Jo-BhXyl43 (complex)

B1: His-Jo-BhXyl43 (Halalkalibacterium halodurans C-125) (protein)
chain: MVNRIQNPILPGFHPDPSIVRVGDDYYIATSTFEWFPGVRIHHSRDLKHWRFVSSPLTRTSQLDMKGNMNSGGIWAPCLSYHDGTFYLIYTDVKQWHGAFKDAHNYLVTAQNIEGPWSDPIYLNSSGFDPSLFHDDDGRKWLVNMIWDYRKGNHPFAGIILQEYSEAEQKLVGPVKNIYKGTDIQLTEGPHLYKKDGYYYLLVAEGGTEYEHAATLARSQSIDGPYETDPSYPLVTSTGQPELALQKAGHGSLVETQNGEWYLAHLCGRPLKGKYCTLGRETAIQKVNWTEDGWLRIEDGGNHPLREVTAPDLPEHPFEKEPELDDFDAPQLHHQWNTLRIPADPSWCSLEERPGHLRLRGMESLTSVHSQSLVARRQQSFHCEVETKLEYQPESFQHMAGLVIYYDTEDHVYLHVTWHEEKGKCLQIIQTKGGNYDELLASPIPLAEEKAVYLKGRIHRETMHLYFKQEGEAEWQPVGPTIDVTHMSDDSAKQVRFTGTFVGMATQDLSGTKKPADFDYFRYKELDQ
notes: N-terminal His6 tag and Jo module (about 10 kDa, isopeptide-forming fragment) fused to the N-terminus of BhXyl43 (63 kDa); expressed in E. coli BL21(DE3), IMAC purified
Km [4]: 6.01 ± 0.41 mM | kcat [4]: 18.1 ± 1.17 s⁻¹ | kcat/Km [4]: 3015 ± 10.9 M⁻¹ s⁻¹
